Values belong to the binder of their own block, whether it stands above or below them.
Tests used:
CD19 [1] = molecular target: CD19 (UniProt P15391); test: cell-based or functional assay
CD19 [2] = molecular target: CD19 (UniProt P15391); test: competition FACS, Raji cells; vs parent
CD19 [3] = molecular target: CD19 (UniProt P15391); test: competition FACS, Raji cells; unit and quantity not given
CD19 [4] = molecular target: T1, CD19 (UniProt P15391 20-556, limits assumed); test: FACS competition, Raji cells; fold vs unmasked hBU12ec
T1 construct: whole, on cells; Target of hBU12
T1 sequence (looked up): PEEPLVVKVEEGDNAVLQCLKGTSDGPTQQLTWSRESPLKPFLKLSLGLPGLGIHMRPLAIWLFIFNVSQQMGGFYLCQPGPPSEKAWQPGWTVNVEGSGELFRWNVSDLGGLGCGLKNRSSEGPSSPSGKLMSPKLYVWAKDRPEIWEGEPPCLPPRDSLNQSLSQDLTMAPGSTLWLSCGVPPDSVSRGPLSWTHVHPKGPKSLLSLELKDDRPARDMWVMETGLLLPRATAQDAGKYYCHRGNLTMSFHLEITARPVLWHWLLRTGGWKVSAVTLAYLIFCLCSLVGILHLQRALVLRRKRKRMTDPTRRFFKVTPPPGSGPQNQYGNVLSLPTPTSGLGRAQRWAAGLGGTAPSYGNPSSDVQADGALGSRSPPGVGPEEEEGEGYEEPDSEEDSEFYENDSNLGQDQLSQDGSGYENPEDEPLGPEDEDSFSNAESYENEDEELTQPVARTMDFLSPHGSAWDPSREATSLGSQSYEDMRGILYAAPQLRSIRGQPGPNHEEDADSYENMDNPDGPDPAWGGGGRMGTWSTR
Description: (§1) To evaluate cell binding of masked antibodies, 2×10⁵ of indicated cells (Raji, Ramos, PC3, Daudi) were combined with fluorescently labeled parent antibody mixed with serial dilutions of competitor (masked antibody) in staining buffer (PBS, 2% FBS, 0.2% NaN3). Samples were incubated for 1 hour on ice and washed twice with ice-cold staining buffer. Labeled cells were examined by flow cytometry on a BD LSRII gated to exclude nonviable cells and analyzed using Flowing Software (Turku Centre for Biotechnology). The IC50 was calculated using GraphPad Prism 6.
(§2) Activity was tested using the hBU12 antibody, cAg-1, 1C1, HuMab-CD74-011, and an antibody against Antigen 2, designated hAg-2.

CD19 [5] = molecular target: T1, CD19; test: FACS competition, Raji cells; fold vs hBU12ec
Description: as §1
(§3) Four antibodies (hBU12 against CD19, anti-Antigen 1 antibody against Antigen 1 (cAg-1), 1C1 against EphA2 and HuMab CD74-011 against CD74) were tested using the coiled coil blocking domains. The antibody CD74 comprises a light chain (SEQ ID NO: 1) and a heavy chain (SEQ ID NO: 2). Sequences for A3B3, A4B4, CVel, antipO, and dHLX were N-terminally fused to the light and heavy chains of the antibodies. To test for binding, FACs-based competition assays were utilized to account for high concentrations of competitor necessary to displace the parent antibody and the results are listed in Tables 2-5. Other antibodies that can be conjugated to a coiled-coil peptide are SEQ ID NOs: 3-19. SEQ ID NO: 3 is the amino acid sequence of hBU12 heavy chain variable region, and SEQ ID NO: 4 is the amino acid sequence of hBU12 light chain variable region. […]

CD19 [6] = molecular target: T1, CD19; test: cell-based or functional assay
CD19 [7] = molecular target: T1, CD19; test: FACS competition with labeled parent hBU12, Raji cells
Description: as §1, §3

CD74 = molecular target: T2, CD74 (UniProt P04233 1-296); test: FACS competition, Daudi cells; fold vs unmasked HuMab-CD74-011
T2 construct: whole, on cells; Target of HuMab-CD74-011
T2 sequence (looked up): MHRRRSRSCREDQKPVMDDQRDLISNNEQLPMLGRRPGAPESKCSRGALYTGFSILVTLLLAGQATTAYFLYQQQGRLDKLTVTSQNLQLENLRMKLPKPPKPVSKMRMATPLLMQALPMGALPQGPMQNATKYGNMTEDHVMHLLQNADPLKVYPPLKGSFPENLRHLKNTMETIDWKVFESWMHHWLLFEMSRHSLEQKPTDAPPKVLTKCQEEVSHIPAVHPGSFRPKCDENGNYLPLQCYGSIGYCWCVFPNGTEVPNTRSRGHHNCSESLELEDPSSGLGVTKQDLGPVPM
Description: as §1, §2

- Binding Data (fold decrease per paragraph 159) (CD19 [2]): > 160 fold
- Binding Data (CD19 [3]): > 600
B1: Cvel-1910(2) (antibody)
VH: EACGASTSVDELQAEVDQLEDENYALKTKVAQLRKKVEKLGSIPVSLRSGQVQLQESGPGLVKPSQTLSLTCTVSGGSISTSGMGVGWIRQHPGKGLEWIGHIWWDDDKRYNPALKSRVTISVDTSKNQFSLKLSSVTAADTAVYYCARMELWSYYFDYWGQGTLVTVSS
VL: EACGASTTVAQLEEKVKTLRAENYELKSEVQRLEEQVAQLGSIPVSLRSGEIVLTQSPATLSLSPGERATLSCSASSSVSYMHWYQQKPGQAPRLLIYDTSKLASGIPARFSGSGSGTDFTLTISSLEPEDVAVYYCFQGSVYPFTFGQGTKLEIKR
modifications: PBD drug-linker on the engineered cysteine at position 239 of the heavy chain constant region
- Cytotoxicity Data Fold Change, Ramos cells (CD19 [1]): 1320 fold
- Cytotoxicity Data IC50 (ng/mL), Ramos cells (CD19 [1]): 100 ng/mL

- fold decrease in binding (CD19 [4]): > 300 fold
- Fold Change (CD19 [5]): > 300 fold
B2: Cvel hBU12ec (antibody)
VH: EACGASTSVDELQAEVDQLEDENYALKTKVAQLRKKVEKLGSIPVSLRSGQVQLQESGPGLVKPSQTLSLTCTVSGGSISTSGMGVGWIRQHPGKGLEWIGHIWWDDDKRYNPALKSRVTISVDTSKNQFSLKLSSVTAADTAVYYCARMELWSYYFDYWGQGTLVTVSS
VL: EACGASTTVAQLEEKVKTLRAENYELKSEVQRLEEQVAQLGSIPVSLRSGEIVLTQSPATLSLSPGERATLSCSASSSVSYMHWYQQKPGQAPRLLIYDTSKLASGIPARFSGSGSGTDFTLTISSLEPEDVAVYYCFQGSVYPFTFGQGTKLEIKR
notes: the linker/protease site is not restated for this antibody; S239C constant region

B3: hBU12ec-1910(2) (antibody, V domains shown)
VH: QVQLQESGPGLVKPSQTLSLTCTVSGGSISTSGMGVGWIRQHPGKGLEWIGHIWWDDDKRYNPALKSRVTISVDTSKNQFSLKLSSVTAADTAVYYCARMELWSYYFDYWGQGTLVTVSS
VL: EIVLTQSPATLSLSPGERATLSCSASSSVSYMHWYQQKPGQAPRLLIYDTSKLASGIPARFSGSGSGTDFTLTISSLEPEDVAVYYCFQGSVYPFTFGQGTKLEIKR
modifications: PBD drug-linker on the engineered cysteine at position 239 of the heavy chain constant region
- Cytotoxicity Data IC50 (ng/mL), Ramos cells (CD19 [6]): 0.1 ng/mL

- IC50 (CD19 [7]): 3.6 nM
B4: hBU12ec (antibody, V domains shown)
VH: QVQLQESGPGLVKPSQTLSLTCTVSGGSISTSGMGVGWIRQHPGKGLEWIGHIWWDDDKRYNPALKSRVTISVDTSKNQFSLKLSSVTAADTAVYYCARMELWSYYFDYWGQGTLVTVSS
VL: EIVLTQSPATLSLSPGERATLSCSASSSVSYMHWYQQKPGQAPRLLIYDTSKLASGIPARFSGSGSGTDFTLTISSLEPEDVAVYYCFQGSVYPFTFGQGTKLEIKR
notes: Anti-CD19 antibody; also called parent antibody

- fold decrease in binding (CD74): 26 fold
B5: CVel HuMab-CD74-011 (antibody)
heavy: EACGASTSVDELQAEVDQLEDENYALKTKVAQLRKKVEKLGSIPVSLRSGQVQLVESGGGVVQPGRSLRLSCAASGFTFSSYGMHWVRQAPDKGLEWVAVIWYDGSNKYYADSVKGRFTISRDNSKNTLYLQMNSLRAEDTAVYYCARGGTLVRGAMYGTDVWGQGTTVTVSS
light: EACGASTTVAQLEEKVKTLRAENYELKSEVQRLEEQVAQLGSIPVSLRSGDIQMTQSPSSLSASVGDRVTITCRASQGISSWLAWYQQKPEKAPKSLIYAASSLQSGVPSRFSGSGSGTDFTLTISSLQPEDFATYYCQQYNSYPLTFGGGTKVEIK
notes: not restated for this antibody

From patent publication US20190352428A1 (Seagen, published 2019)
